Measurements from patent US20240368617A1, “NPR1 VARIANT TO ENHANCE PLANT RESISTANCE TO BIOTIC AND ABIOTIC STRESSES AND METHOD THEREOF” (Duke University, published 2024).

Tests used:
[1] = target: the molecule itself; assay: X-ray crystal structure, 1.5 A; self-association
Description: The Arabidopsis TGA3 NID (Ala160-Thr384) was cloned into the pTrcHis vector (Thermo Fisher Scientific) as a His10-MBP fusion protein containing a PreScission protease site following MBP and a C-terminal tandem Flag-HA tag. The purification procedure was per-formed similarly to that of Arabidopsis TGA3 (Asn87-Thr384) except that the size-exclusion chromatography buffer contained 20 mM HEPES (pH 7.5), 150 mM NaCl and 1 mM TCEP. Protein crystals were grown using the sitting-drop vapor diffusion method at 20° C. Each drop contained 1 μl of the protein solution mixed with 1 μl of the reservoir solution (0.1 m sodium acetate at pH 5.0, 20% (v/v) MPD). Diffraction quality protein crystals were collected after 1 week and cryoprotected with the reservoir solution also containing 25% glycerol.

[2] = target: the molecule itself; assay: cryo-EM of the NPR1-TGA3 complex; self-association
[3] = target: T1, Full-length Arabidopsis NPR1 with C-terminal Strep tag, expressed in E. coli (NPR1-Strep3) (Arabidopsis thaliana, UniProt P93002 1-593); assay: cryo-EM of BS3 cross-linked NPR1-TGA3-LS7 DNA complex
T1 construct: Full-length NPR1; Homodimer; Purified with 0.2 mM salicylic acid; also called WT NPR1; not shown: C-terminal Strep tag (Strep3) with its last Lys mutated to Arg
T1 sequence: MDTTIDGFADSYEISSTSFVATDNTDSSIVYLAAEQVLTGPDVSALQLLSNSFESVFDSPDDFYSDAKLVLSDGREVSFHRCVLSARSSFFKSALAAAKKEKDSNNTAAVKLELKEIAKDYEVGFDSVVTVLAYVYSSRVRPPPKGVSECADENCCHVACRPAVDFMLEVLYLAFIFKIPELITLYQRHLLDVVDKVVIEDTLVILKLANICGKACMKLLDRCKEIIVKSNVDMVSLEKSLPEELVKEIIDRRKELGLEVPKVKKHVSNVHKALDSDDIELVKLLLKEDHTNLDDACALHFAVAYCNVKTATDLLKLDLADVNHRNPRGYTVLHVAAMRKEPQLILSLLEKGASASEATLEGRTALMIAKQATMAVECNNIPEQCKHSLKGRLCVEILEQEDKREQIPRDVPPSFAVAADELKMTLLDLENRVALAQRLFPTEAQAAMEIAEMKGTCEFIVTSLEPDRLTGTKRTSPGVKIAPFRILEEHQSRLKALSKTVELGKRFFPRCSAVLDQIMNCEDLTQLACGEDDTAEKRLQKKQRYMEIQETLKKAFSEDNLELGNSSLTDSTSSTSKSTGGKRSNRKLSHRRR
Description: 2. NPR1 TGA3 LS7-DNA cryo-EM sample preparation. The purified NPR1-Strep3 (20 μM), TGA3-Flag-HA (48 μM) and the LS7 DNA containing a palindromic TGA-binding site (underlined in 5′-[…]-3′, 57.6 μM) were mixed and incubated at 4° C. for 30 min. The protein-DNA complex was cross-linked with 1.5 mM BS3 (Thermo Fisher Scientific) at room temperature for 30 min and quenched with 50 mM Tris (pH 8.0). The protein-DNA mixture was further purified using a Strep-Tactin column (Qiagen) and size-exclusion chromatography (Superose 6 in-crease 10/300 GL, Cytiva) in a buffer containing 25 mM HEPES (pH 7.5), 150 mM NaCl, 2 mM DTT and 0.2 mM SA.
3. Cryo-EM sample preparation and data collection. Cryo-EM grids containing the NPR1-TGA3-LS7-DNA complex were prepared using the Leica EM GP2 Automatic Plunge Freezer at 4° C. and 85% humidity. The UltrAuFoil R1.2/1.3 300-mesh grids (Quantifoil) were glow-discharged using the PELCO easiGlow Glow Discharge Cleaning System (Ted Pella). A 3 μl sample of NPR1-TGA3-LS7-DNA (˜1.3 mg/ml) was applied to the grid, incubated for 60 s in the chamber and blotted for 2.4 s with Whatman No. 1 filter paper (Whatman International) to re-move excess sample, and then plunge-frozen into liquid ethane cooled by liquid nitrogen. […]

TGA3 (Asn87-Thr384) = target: T2, TGA3 (Asn87-Thr384) (Arabidopsis thaliana, UniProt Q39234 Q39234:87-384); assay: EMSA; conditions: tags: His10-MBP (PreScission site) N-terminal, C-terminal tandem Flag-HA; AT1G22070; E. coli; label: 6-FAM
T2 sequence: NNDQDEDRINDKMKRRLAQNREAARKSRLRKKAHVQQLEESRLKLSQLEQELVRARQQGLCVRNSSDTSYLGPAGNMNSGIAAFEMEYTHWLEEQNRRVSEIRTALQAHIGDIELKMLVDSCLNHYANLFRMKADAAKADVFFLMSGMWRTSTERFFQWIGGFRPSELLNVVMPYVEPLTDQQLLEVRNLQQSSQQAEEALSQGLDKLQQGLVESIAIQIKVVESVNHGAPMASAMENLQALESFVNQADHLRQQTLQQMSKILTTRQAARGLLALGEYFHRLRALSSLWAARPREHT
Description: The npr1(dim) mutant (L49D/F53D/V56D/V83K) was cloned into the pTrcHis vector (Thermo Fisher Scientific) as a His10-MBP fusion protein containing a PreScission protease site following MBP and a C-terminal Strep tag, and was expressed and purified similarly to the WT NPR 1 protein. Purified TGA3 (Asn87-Thr384) at a concentration of 0.6 μM and WT NPR1 or the npr1(dim) mutant at a concentration of 8 μM were used in the EMSA with the 6-fluorescein (6-FAM)-labelled oligonucleotide probes (200 nM) containing the LS5 and LS7 as-I cis-elements of the SA-responsive PRI gene promoter (LS5/LS7, 6-FAM-C-ggg[…]ggg) or DNA sequences with the two as-1 regions replaced with adenosines (LS5/LS7, 6-FAM-C-ggg[…]ggg), with the LS7 as-1 element replaced with adenosines (LS5/LS7, 6-FAM-C-ggg[…]-GAggg) or with the LS5 as-1 element replaced with adenosines (LS5/LS7, 6-FAM-C-ggg[…]ggg) as well as their complementary oligonucleotides (Integrated DNA Technologies). The uppercase bases indicate the LS5/LS7 sequence; the lowercase bases indicate overhangs outside the LS5/LS7 sequence; and bases replaced with adenosines are indicated with A's in the small capital font. Pairs of complementary DNA strands were annealed before the binding reaction. For each binding reaction, the desired protein combination was mixed with the target DNA probe together with 30 ng/μL of poly (dI-dC) (non-specific competitor, Thermo Fisher Scientific) in a binding buffer containing 20 mM HEPES (pH 8.0), 300 mM NaCl, 10% glycerol, 1 mM DTT and 0.2 mM SA. […] After electrophoresis, the gel was scanned with the Typhoon FLA 7000 imager (GE Healthcare).

[4] = target: the molecule itself; assay: hydrogen peroxide-induced oligomerization, non-reducing SDS-PAGE
Description: WT NPR1 BTB/BHB (Thr39-Lys262) and the npr1(C156A), npr1 (C82A) and npr1(C212V/C216A/C223L) mutants were cloned into the pTrcHis vector (Thermo Fisher Scientific) as His10-MBP fusion proteins with a PreScission protease site following MBP and a C-terminal Strep tag. The proteins were expressed and purified similarly to the NPR1 (²SBD) as described above. The NPR1 BTB/BHB WT and mutant proteins at a concentration of 25 μM were incubated with 1 mM hydrogen peroxide in a buffer containing 125 mM HEPES and 150 mM NaCl at pH 8.0 at room temperature for 45 min. The oxidized samples were incubated with 50 mM iodoacetamide for 5 min, mixed with 4× SDS loading dye and analyzed using SDS-PAGE in the absence of any reducing reagent.

[5] = target: the molecule itself; assay: X-ray crystal structure of NPR1(deltaSBD); tetramer in the crystal
Description: 5. X-ray crystallography studies of NPR1 (ΔSBD)) and the TGA3 NID. Arabidopsis NPR1 (²SBD) (Thr39-Asp410) was cloned into the pTrcHis vector (Thermo Fisher Scientific) as a His10-MBP fusion protein containing a PreScission protease site following MBP and a C-terminal Strep tag. Expression and purification of NPR1 (²SBD) was performed using similar procedures to those described above for E. coli-expressed NPR1, except that the size-exclusion chromatography buffer contained 20 mM HEPES (pH 7.5), 150 mM NaCl and 1 mM TCEP. Protein crystals were grown using the sitting-drop vapor diffusion method at 20° C. Each drop was prepared by mixing 1 μl of the protein solution at 6 mg ml-1 with 1 μl of the reservoir solution containing 0.1 M HEPES (pH 7.5), 19% PEG 3350, 0.25 m tri-sodium citrate. Diffraction-quality protein crystals were collected after 1 week and cryoprotected with the reservoir solution containing 25% glycerol.

B1: Arabidopsis TGA3 NID (Ala160-Thr384) with C-terminal tandem Flag-HA tag (other, Arabidopsis thaliana, UniProt Q39234 160-384, looked up)
chain: AGNMNSGIAAFEMEYTHWLEEQNRRVSEIRTALQAHIGDIELKMLVDSCLNHYANLFRMKADAAKADVFFLMSGMWRTSTERFFQWIGGFRPSELLNVVMPYVEPLTDQQLLEVRNLQQSSQQAEEALSQGLDKLQQGLVESIAIQIKVVESVNHGAPMASAMENLQALESFVNQADHLRQQTLQQMSKILTTRQAARGLLALGEYFHRLRALSSLWAARPREHT
notes: range 160-384; Crystallised as a dimer with palmitate (PDB 7TAE); not shown: C-terminal tandem Flag-HA tag
B1: binds [1].

B2: Arabidopsis TGA3 (Asn87-Thr384) with C-terminal tandem Flag-HA tag (other, Arabidopsis thaliana, UniProt Q39234 87-384, looked up)
chain: T2 sequence
notes: range 87-384; E. coli expressed; His10-MBP removed with PreScission protease; two dimers per NPR1 dimer in the full complex; also called TGA3-Flag-HA; not shown: C-terminal tandem Flag-HA tag
B2: binds [2]; binds [3].

B3: PR1 promoter LS5-/LS7- (both as-1 replaced) (dsDNA)
DNA 1: GGGCTAAAAAAAAAGTAAAATAGAAAAAAAAAGAGGG
DNA 2: CCCTCTTTTTTTTTCTATTTTACTTTTTTTTTAGCCC
B3: no binding (TGA3 (Asn87-Thr384)).

B4: WT NPR1 BTB/BHB (Thr39-Lys262) with C-terminal Strep tag (other)
chain: TGPDVSALQLLSNSFESVFDSPDDFYSDAKLVLSDGREVSFHRCVLSARSSFFKSALAAAKKEKDSNNTAAVKLELKEIAKDYEVGFDSVVTVLAYVYSSRVRPPPKGVSECADENCCHVACRPAVDFMLEVLYLAFIFKIPELITLYQRHLLDVVDKVVIEDTLVILKLANICGKACMKLLDRCKEIIVKSNVDMVSLEKSLPEELVKEIIDRRKELGLEVPK
notes: E. coli expressed, His10-MBP fusion with PreScission site, purified as NPR1(deltaSBD); Used in hydrogen peroxide oxidation assay; also called NPR1 BTB-BHB domain; NPR1 (residues Thr39-Lys262); not shown: C-terminal Strep tag
B4: binds [4].

B5: Arabidopsis NPR1(deltaSBD) (Thr39-Asp410) with C-terminal Strep tag (other)
chain: TGPDVSALQLLSNSFESVFDSPDDFYSDAKLVLSDGREVSFHRCVLSARSSFFKSALAAAKKEKDSNNTAAVKLELKEIAKDYEVGFDSVVTVLAYVYSSRVRPPPKGVSECADENCCHVACRPAVDFMLEVLYLAFIFKIPELITLYQRHLLDVVDKVVIEDTLVILKLANICGKACMKLLDRCKEIIVKSNVDMVSLEKSLPEELVKEIIDRRKELGLEVPKVKKHVSNVHKALDSDDIELVKLLLKEDHTNLDDACALHFAVAYCNVKTATDLLKLDLADVNHRNPRGYTVLHVAAMRKEPQLILSLLEKGASASEATLEGRTALMIAKQATMAVECNNIPEQCKHSLKGRLCVEILEQEDKREQIPRD
notes: E. coli expressed, His10-MBP removed; Crystal structure PDB 7MK3; two dimers stack to a tetramer in the crystal; also called NPR1 (ASBD); NPR1 (^2SBD); not shown: C-terminal Strep tag
B5: binds [5].
